The Kd is the constant that tells how readily two partners part at equilibrium. Low readings indicate tighter binding, high ones weaker binding.

Consider 1 molecule from publication PMC8794802.

Holding throughout (assay): EMSA
Background: Mobility shift assays separate free from complexed probe on a gel.

For one series, the target named is T1, Pus7 D256A/N305A (Saccharomyces cerevisiae, UniProt Q08647 1-676, D256A;N305A).
T1 sequence: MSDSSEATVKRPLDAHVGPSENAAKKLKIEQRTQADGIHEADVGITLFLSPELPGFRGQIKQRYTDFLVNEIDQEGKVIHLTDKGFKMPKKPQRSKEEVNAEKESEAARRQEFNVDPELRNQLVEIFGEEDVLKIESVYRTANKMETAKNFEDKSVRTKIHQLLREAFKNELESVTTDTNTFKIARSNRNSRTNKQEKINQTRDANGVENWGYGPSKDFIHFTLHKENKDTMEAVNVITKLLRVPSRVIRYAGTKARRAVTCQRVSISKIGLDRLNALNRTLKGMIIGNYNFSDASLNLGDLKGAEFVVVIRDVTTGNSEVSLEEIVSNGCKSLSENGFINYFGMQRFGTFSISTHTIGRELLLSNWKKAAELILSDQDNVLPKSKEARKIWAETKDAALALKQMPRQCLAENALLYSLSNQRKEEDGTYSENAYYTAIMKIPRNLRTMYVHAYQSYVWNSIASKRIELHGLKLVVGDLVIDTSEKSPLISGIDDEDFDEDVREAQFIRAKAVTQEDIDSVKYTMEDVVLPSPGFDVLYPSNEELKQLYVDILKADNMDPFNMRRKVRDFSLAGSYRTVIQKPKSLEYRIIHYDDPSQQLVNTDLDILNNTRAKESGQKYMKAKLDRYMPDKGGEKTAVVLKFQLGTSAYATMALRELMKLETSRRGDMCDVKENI

In another series the target is T2, Pus7 D256A/E71A (Saccharomyces cerevisiae, UniProt Q08647 1-676, E71A;D256A).
T2 sequence: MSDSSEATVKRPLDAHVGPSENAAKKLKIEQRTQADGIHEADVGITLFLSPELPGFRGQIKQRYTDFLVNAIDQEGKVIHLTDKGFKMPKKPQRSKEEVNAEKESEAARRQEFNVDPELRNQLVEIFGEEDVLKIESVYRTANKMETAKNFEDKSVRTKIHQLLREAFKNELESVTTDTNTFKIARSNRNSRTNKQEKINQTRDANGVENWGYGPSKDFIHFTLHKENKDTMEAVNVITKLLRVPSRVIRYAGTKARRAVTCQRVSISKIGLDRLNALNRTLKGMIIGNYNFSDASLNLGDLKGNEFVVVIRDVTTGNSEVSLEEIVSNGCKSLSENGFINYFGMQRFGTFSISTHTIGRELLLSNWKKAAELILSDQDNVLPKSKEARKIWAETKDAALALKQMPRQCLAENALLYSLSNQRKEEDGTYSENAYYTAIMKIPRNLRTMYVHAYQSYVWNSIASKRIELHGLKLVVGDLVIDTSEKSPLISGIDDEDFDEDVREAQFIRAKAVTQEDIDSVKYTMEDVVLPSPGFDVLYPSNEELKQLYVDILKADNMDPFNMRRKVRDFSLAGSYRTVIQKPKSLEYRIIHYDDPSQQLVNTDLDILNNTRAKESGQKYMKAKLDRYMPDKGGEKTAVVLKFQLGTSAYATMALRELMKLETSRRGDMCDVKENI

Another series concerns the target T3, Pus7 D256A/H161A (Saccharomyces cerevisiae, UniProt Q08647 1-676, H161A;D256A).
T3 sequence: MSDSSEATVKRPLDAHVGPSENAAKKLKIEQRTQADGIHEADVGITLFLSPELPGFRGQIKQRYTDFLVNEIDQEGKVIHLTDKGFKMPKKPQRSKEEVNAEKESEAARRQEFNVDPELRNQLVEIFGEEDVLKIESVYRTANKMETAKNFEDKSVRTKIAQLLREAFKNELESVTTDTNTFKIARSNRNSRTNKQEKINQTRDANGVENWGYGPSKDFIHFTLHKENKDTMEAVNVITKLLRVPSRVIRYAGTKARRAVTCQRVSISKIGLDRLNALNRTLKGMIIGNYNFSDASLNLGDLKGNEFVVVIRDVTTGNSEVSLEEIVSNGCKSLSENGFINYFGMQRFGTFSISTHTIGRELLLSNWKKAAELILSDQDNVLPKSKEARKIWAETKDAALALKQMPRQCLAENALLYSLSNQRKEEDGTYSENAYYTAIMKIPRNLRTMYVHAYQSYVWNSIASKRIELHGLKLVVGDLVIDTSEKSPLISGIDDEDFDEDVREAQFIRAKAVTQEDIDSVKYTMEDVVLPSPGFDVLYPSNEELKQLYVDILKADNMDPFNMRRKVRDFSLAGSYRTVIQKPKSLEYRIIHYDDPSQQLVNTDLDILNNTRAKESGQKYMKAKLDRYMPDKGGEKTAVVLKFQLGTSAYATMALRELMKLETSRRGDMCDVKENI

B1: CDC8 (cdc8-FL, 61 nt) (ssRNA)
RNA: GUCAAUCACGAUUGUAGACGUUACUAAUAAGGGCAUUCAGGAAGUUGAAGCGCUUAUUUGG
Regarding B1, the Kd with Pus7 D256A/N305A was 230 ± 60 nM; with Pus7 D256A/E71A it was 210 ± 50 nM; in the series with Pus7 D256A/H161A, 170 ± 40 nM.
